From the supplement of paper PMC12764529
± gives the half width of the 95% confidence interval.

Columns and labels:
[1] = folding stability dG unfold (combined trypsin and chymotrypsin); higher = more stable
Outline: (§1)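 Sequencing followed digestion of designed mini-proteins with trypsin and chymotrypsin, each at 11 concentrations in threefold dilutions together with a no-protease condition. The mini-proteins were under 80 residues, had no cysteine, sat in a PA-tagged cDNA display construct, and were kept only if AlphaFold2 dimer inter-PAE was above 15. From the counts, Bayesian fitting gave K50, and unfolding free energy was derived against a sequence-predicted unfolded-state K50 and a shared folded-state K50, per protease or combined.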

[2] = folding stability dG unfold from chymotrypsin proteolysis; higher = more stable
Outline: as §1

[3] = folding stability dG unfold from trypsin proteolysis; higher = more stable
Outline: as §1

| Sequence | folding stability dG unfold [1] [kcal/mol] | folding stability dG unfold [2] [kcal/mol] | folding stability dG unfold [3] [kcal/mol] |
| --- | --- | --- | --- |
| SAGGSAGGSAWHIRIHPGNEPQWIPIDDLRDKGLPPEELAEELQKKFGFKVEIVDPGWIRVKSAGGSAGGSA [r18_7_TrROS] | -0.348 ± 0.24 | -0.364 ± 0.42 | -0.284 ± 0.26 |
| SAGGSAGGSAWIVIPAEDIKENLDEIEFRNGDGQEYRIKVDVQEHGDRPYVMIDIVPPGQPISAGGSAGGSA [r18_447_TrROS] | 0.472 ± 0.18 | 0.882 ± 0.15 | -0.413 ± 0.28 |
| SAGGSAGGSAWKKFMLEFPDGRPFMIEIDPDEPGRVKIYPPGNGKEEEIPPDDLKDLKITASAGGSAGGSAG [r3_451_TrROS] | 0.507 ± 0.33 | 0.718 ± 0.27 | -0.0506 ± 0.36 |
| SAGGSAGGSAWRLYIGGQKIEIPPGGPVKLERHKNGWVKIEIKMPGGRKKEFTIPIPPGATSAGGSAGGSAG [r3_207_TrROS] | 1.66 ± 0.18 | 1.76 ± 0.17 | 1.23 ± 0.14 |
| SAGGSAGGSAYELVIVGTPELALKLAKEFAEKNPESVANLKIEKITAALPVPFLSPDGIPESAGGSAGGSAG [r3_89_TrMRF] | 0.0822 ± 0.24 | 0.207 ± 0.39 | 0.0947 ± 0.1 |
| SAGGSAGGSDDSPEDAQKQQAKPEIKIKLHIRFPDGKEYDLDEPFEFPINGQPMRISSIDIVYSAGGSAGGS [r12_43_TrROS] | 0.823 ± 0.11 | 1.18 ± 0.21 | 0.419 ± 0.037 |
| SAGGSAGGSDEEVEVTLYPVDPSAPDDTVYYAEVTFPNGLVARYRFRKKDGKVEGELVEVKPASAGGSAGGS [r12_1049_TrMRF] | 1.91 ± 0.083 | 1.95 ± 0.11 | 1.65 ± 0.048 |
| SAGGSAGGSDFKPVLVIELDDKTVLVFELEDGTVLVLAENEIALIPASIPAEHFPEDAKLDLDSAGGSAGGS [r12_594_TrMRF] | 1.85 ± 0.065 | 1.76 ± 0.052 | 2.04 ± 0.12 |
| SAGGSAGGSDLVRVEMLITKIVPGTGDPVETVKIEVEVPRSEIPKVIEEIPEGYEVTEIKFIPESAGGSAGG [r6_777_JUSTAS] | 1.57 ± 0.11 | 1.18 ± 0.062 | 2.05 ± 0.079 |
| SAGGSAGGSDMTMTYIIPLPDYAIVISFKIEITEVEYNPENGKPVKFRFDIEIKIEVFPPGDLSAGGSAGGS [r12_809_TrROS] | 4.38 ± 0.29 | 4.68 ± 0.19 | 3.46 ± 0.21 |
| SAGGSAGGSDPAKKPVYLLATVEVEIGEVVDPNTGEPSHEHRVTVRFLITIDPDGNISISSLTSAGGSAGGS [r12_438_TrMRF] | 3.15 ± 0.21 | 3.25 ± 0.18 | 2.9 ± 0.2 |
| SAGGSAGGSDPNNEPVYIMMKFEIEIKVERDPENGKPKAEDPITITFIIRIPPNGNLEIGIMISAGGSAGGS [r12_438_TrROS] | 4.11 ± 0.12 | 4.33 ± 0.13 | 3.52 ± 0.11 |
| SAGGSAGGSDPPVVTVEVKEETLPNGEKIYIVTVTREDGTTKTLKFPASTSEEEIKEKVEKLLSAGGSAGGS [r12_1019_JUSTAS] | 4.17 ± 0.35 | 4.08 ± 0.18 | 3.64 ± 0.3 |
| SAGGSAGGSDTIVVTLPDGTKITYDKENNEVYVYNLKTKKKIKFPKNMSLEEVLKAIKKLKKPSAGGSAGGS [r12_832_TrROS_Hall] | 2.71 ± 0.082 | 2.982 ± 0.026 | 2 ± 0.07 |
| SAGGSAGGSDWRPIKIWYPLDDLEQIKEKIREDGITVEINVQRDPNGKLYAPVTIWVPKGAKPSAGGSAGGS [r12_653_TrROS] | 1.32 ± 0.15 | 1.57 ± 0.032 | 0.998 ± 0.039 |
| SAGGSAGGSEAKIELEYDEETNTLTVRIEVDGELYEERIEVTIEPAPPPPPPVEVVVVELPEESAGGSAGGS [r12_70_TrROS_Hall] | 2.4 ± 0.49 | 2.71 ± 0.21 | 1.56 ± 0.55 |
| SAGGSAGGSEATLEVEVRVDGVLVRVRVEYDLETQELRIEVEVRPLPPPPVEVRTEYRSLEDLSAGGSAGGS [r12_813_TrROS_Hall] | 1.5 ± 0.27 | 1.59 ± 0.26 | 1.23 ± 0.052 |
| SAGGSAGGSEEEKLKKLKEKLKPPKIKVKIEVKVEYDKETGKLKVEATVEINGKKYKLTIEFPSAGGSAGGS [r20_230_TrROS_Hall] | 3.49 ± 0.71 | 4.19 ± 0.13 | 3.11 ± 0.19 |

| Sequence | folding stability dG unfold [1] [kcal/mol] | folding stability dG unfold [2] [kcal/mol] | folding stability dG unfold [3] [kcal/mol] |
| --- | --- | --- | --- |
| SAGGSAGGSEEIKKAIEEALKKMKPGEEKEVTIEIYDKKTNKKIAKIKIRIRRKKDGKLEIEFSAGGSAGGS [r20_151_TrROS_Hall] | 3.77 ± 0.19 | 3.6 ± 0.19 | 4.01 ± 0.2 |
| SAGGSAGGSEEILKALGVEPGDEVEIEMTPEELEELLALPGVEPVRVEERPDGRLRVRIRILPSAGGSAGGS [r12_750_TrROS_Hall] | 2.99 ± 0.1 | 2.93 ± 0.077 | 3.14 ± 0.11 |
| SAGGSAGGSEIKIEKAEITVEYDEETGVFRATITLPDGYRITAEFRLRPDGSLELTRVEIEEVSAGGSAGGS [r12_111_TrROS_Hall] | 5.29 ± 0.25 | 5.37 ± 0.11 | 4.3 ± 0.19 |
| SAGGSAGGSEIPDIEITIDSIEFFPDGTVRITATVRFPGGGTAKITLTLPAPPAEYEPPSDLLSAGGSAGGS [r12_558_TrMRF] | 1.39 ± 0.5 | 1.12 ± 0.25 | 1.49 ± 0.2 |
| SAGGSAGGSEKIKEALKELGYDVEIEEIEVKKNKNGKLEIKIKLKPGMSEEEKKRIEEALKKLSAGGSAGGS [r12_352_TrROS_Hall] | 2.84 ± 0.3 | 2.79 ± 0.17 | 3.18 ± 0.4 |
| SAGGSAGGSEKTIKITIKVKVKKKVTVKNKNGEKKTFEFEEKTYTLTTIKFDSKEDALKALKKSAGGSAGGS [r12_452_TrROS_Hall] | 2.17 ± 0.22 | 2.48 ± 0.073 | 1.35 ± 0.044 |
| SAGGSAGGSEPVVIKVTVTNENGEKRTITLPEIEVEPGETIEEIAAALAAEPGVKEVKVEVVPSAGGSAGGS [r12_199_TrROS_Hall] | 0.605 ± 0.069 | 0.444 ± 0.039 | 0.702 ± 0.022 |
| SAGGSAGGSERWVKIWFPPGGTLEEASKMIEEWAQQLGLPITKIDEIEWDPGNGRVEITIRLKSAGGSAGGS [r12_131_TrROS] | 2.02 ± 0.062 | 2.013 ± 0.015 | 1.93 ± 0.046 |
| SAGGSAGGSFFIRVEYPKGKTRTYPIKNGPIEEALEQLPPGWDNVKVSIYNGNKPVEFEIPLPSAGGSAGGS [r12_767_TrROS] | 0.806 ± 0.091 | 1.1 ± 0.074 | 0.389 ± 0.13 |
| SAGGSAGGSFKAPPGEKYVLKLRSPENGQEFMVEFTPDNIKISNPNDEKMPFPPDDITDVKDVSAGGSAGGS [r20_35_TrROS] | -0.109 ± 0.17 | 0.0465 ± 0.24 | -0.612 ± 0.33 |
| SAGGSAGGSFRIKEIEYKPPKGMIEVEIEFPNGRPIKIHINPDEGWDPIYFGGKPIFPIRIEPSAGGSAGGS [r12_789_TrROS] | 0.534 ± 0.11 | 0.859 ± 0.13 | -0.206 ± 0.1 |
| SAGGSAGGSGDKDEVDPNKNISPIPPVKATIFPPDGTPRTVTFTSEEELKAYAEARGWTIEVPSAGGSAGGS [r12_244_JUSTAS] | 0.318 ± 0.23 | 0.231 ± 0.29 | 0.000698 ± 0.12 |
| SAGGSAGGSGEELRNLLANVKKVTVFPNADGGLGVLIELEPEEPEERTIVLNYDQLAELLALGSAGGSAGGS [r12_466_TrMRF] | 0.936 ± 0.15 | 0.813 ± 0.11 | 0.916 ± 0.026 |
| SAGGSAGGSGGFLVLEFEIEVDPEDPEKALAVVEALVESLGFEPVLIEVEEDENRVRVRVLLGSAGGSAGGS [r12_731_TrMRF] | 3.1 ± 0.13 | 3.11 ± 0.13 | 2.93 ± 0.099 |
| SAGGSAGGSGGMMKVIVSVSPGEEAVEKVNKLVNETDLPPIEVIIIPHSPDDPIVVAILLLLLSAGGSAGGS [r12_649_JUSTAS] | 2.73 ± 0.057 | 3.12 ± 0.032 | 2.33 ± 0.053 |
| SAGGSAGGSGIEELKKAGFEIVRIERKEDGTLRLTVRNKETEETKTIEITLPEAEVELVEPPESAGGSAGGS [r12_166_TrROS_Hall] | 3.57 ± 0.093 | 3.74 ± 0.076 | 3.36 ± 0.11 |
| SAGGSAGGSGKPEKVKITYTKDTNTNKYTATITFENGPTYKITFPTKTPEEAIEQAKKLIEASSAGGSAGGS [r12_339_TrMRF] | 1.94 ± 0.15 | 2.05 ± 0.032 | 1.62 ± 0.061 |
